Source: article PMC8091058, “Distinct intramolecular interactions regulate autoinhibition of vinculin binding in αT-catenin and αE-catenin” (The Journal of Biological Chemistry, 2021)

T1: vinculin D1 (aa 1–259) (UniProt P12003 1-259)
T1 construct: vinculin D1 fragment, aa 1-259, the first 2 four-helix bundles; in pGEX-TEV; also called vinculin aa 1 to 259 (D1); vinculin N-terminus; source: E. coli BL21-Gold, purified (glutathione-agarose, TEV cleavage, Mono Q or Mono S, S200)
T1 sequence (looked up): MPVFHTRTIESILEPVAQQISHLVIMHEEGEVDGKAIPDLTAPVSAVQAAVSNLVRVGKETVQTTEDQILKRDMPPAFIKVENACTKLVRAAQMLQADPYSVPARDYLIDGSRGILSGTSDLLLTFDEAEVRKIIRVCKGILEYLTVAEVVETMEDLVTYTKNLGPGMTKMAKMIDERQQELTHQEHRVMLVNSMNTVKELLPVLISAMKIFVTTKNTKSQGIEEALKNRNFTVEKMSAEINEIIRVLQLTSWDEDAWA

T2: αT-catenin N1-N2 (aa 1–259) (Mus musculus, UniProt Q65CL1 1-259)
T2 construct: αT-catenin, Mus musculus, N1-N2, aa 1-259; in pGEX-TEV; also called αT-catenin WT N1-N2; αT-catenin N1-N2 (1–259); source: E. coli BL21-Gold, purified (glutathione-agarose, TEV cleavage, Mono Q or Mono S, S200)
T2 sequence (looked up): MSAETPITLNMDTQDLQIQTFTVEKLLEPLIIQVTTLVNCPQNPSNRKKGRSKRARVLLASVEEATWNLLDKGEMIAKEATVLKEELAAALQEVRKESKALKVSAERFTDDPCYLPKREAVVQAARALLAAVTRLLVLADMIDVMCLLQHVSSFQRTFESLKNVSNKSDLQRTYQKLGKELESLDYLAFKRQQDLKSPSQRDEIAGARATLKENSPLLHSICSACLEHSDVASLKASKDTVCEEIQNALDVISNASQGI

T3: αT-catenin head region (aa 1–659) (Mus musculus, UniProt Q65CL1 1-659)
T3 construct: αT-catenin, Mus musculus, head region (N- and M-domains), aa 1-659; in pGEX-TEV; also called αT-catenin head (1–659); αT-catenin N1-M3 (aa 1–659); source: E. coli BL21-Gold, purified (glutathione-agarose, TEV cleavage, Mono Q or Mono S, S200)
T3 sequence (looked up): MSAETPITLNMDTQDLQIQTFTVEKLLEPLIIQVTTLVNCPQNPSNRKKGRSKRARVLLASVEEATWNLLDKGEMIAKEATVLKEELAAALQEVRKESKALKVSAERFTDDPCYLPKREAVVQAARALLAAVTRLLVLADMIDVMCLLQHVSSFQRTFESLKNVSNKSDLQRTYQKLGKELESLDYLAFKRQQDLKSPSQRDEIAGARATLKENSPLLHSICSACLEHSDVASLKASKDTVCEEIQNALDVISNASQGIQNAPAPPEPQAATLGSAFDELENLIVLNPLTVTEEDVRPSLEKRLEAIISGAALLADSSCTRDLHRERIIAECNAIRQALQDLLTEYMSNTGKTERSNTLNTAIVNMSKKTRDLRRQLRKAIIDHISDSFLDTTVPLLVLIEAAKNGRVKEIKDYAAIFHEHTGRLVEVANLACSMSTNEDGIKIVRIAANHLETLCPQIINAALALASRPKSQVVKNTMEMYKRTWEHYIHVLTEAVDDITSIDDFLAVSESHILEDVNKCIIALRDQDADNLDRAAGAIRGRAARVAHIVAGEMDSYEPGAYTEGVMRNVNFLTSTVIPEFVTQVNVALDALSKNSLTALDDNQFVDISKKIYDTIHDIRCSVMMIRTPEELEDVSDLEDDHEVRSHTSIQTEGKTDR


What was measured:
Conditions in all cases: both partners purified
vinculin D1 (aa 1–259) = molecular target: T1, vinculin D1 (aa 1–259); experiment: ITC; vinculin D1 injected into αT-catenin or αE-catenin fragment (or αT-catenin head–β-catenin complex) in the cell; 25 °C; 20 mM Hepes pH 8.0, 150 mM NaCl, 1 mM TCEP
[1] = molecular target: T2, αT-catenin N1-N2 (aa 1–259); experiment: ITC; β-catenin (110-150 μM) or β-catenin–Ncad_(cyto) complex (103-158 μM) injected into αT-catenin fragment in the cell; 25 °C; 20 mM Hepes pH 8.0, 150 mM NaCl, 1 mM TCEP
[2] = molecular target: T3, αT-catenin head region (aa 1–659); experiment: as above

Row | Kd (vinculin D1 (aa 1–259)) [nM] | dH [1] [kcal/mol] | dH [2] [kcal/mol] | Binder
1 | 31.9 ± 9.1 | – | – | αE-catenin M1-M2 (aa 273–510) (domain or fragment, Mus musculus, UniProt P26231 273-510, looked up, αE-catenin, Mus musculus, M1-M2, aa 273-510; in pGEX-TEV; also called αE-catenin M1-M2 (273–510); source: E. coli BL21-Gold, purified (glutathione-agarose, TEV cleavage, Mono Q or Mono S, S200)) GSGGELAYALNNFDKQIIVDPLSFSEERFRPSLEERLESIISGAALMADSSCTRDDRRERIVAECNAVRQALQDLLSEYMGNAGRKERSDALNSAIDKMTKKTRDLRRQLRKAVMDHVSDSFLETNVPLLVLIEAAKNGNEKEVKEYAQVFREHANKLIEVANLACSISNNEEGVKLVRMSASQLEALCPQVINAALALAAKPQSKLAQENMDLFKEQWEKQVRVLTDAVDDITSIDD
2 | – | -18.9 ± 1 | -27 ± 0.2 | β-catenin–N-cadherin cytoplasmic tail complex (complex, β-catenin, Mus musculus, full length; N-cadherin cytoplasmic tail (Ncad_(cyto)); the methods name no plasmid for the N-cadherin tail; also called β-catenin–Ncad_(cyto); β-cat–Ncad_(cyto); source: β-catenin: E. coli BL21-Gold, purified) chain 1: MATQADLMELDMAMEPDRKAAVSHWQQQSYLDSGIHSGATTTAPSLSGKGNPEEEDVDTSQVLYEWEQGFSQSFTQEQVADIDGQYAMTRAQRVRAAMFPETLDEGMQIPSTQFDAAHPTNVQRLAEPSQMLKHAVVNLINYQDDAELATRAIPELTKLLNDEDQVVVNKAAVMVHQLSKKEASRHAIMRSPQMVSAIVRTMQNTNDVETARCTAGTLHNLSHHREGLLAIFKSGGIPALVKMLGSPVDSVLFYAITTLHNLLLHQEGAKMAVRLAGGLQKMVALLNKTNVKFLAITTDCLQILAYGNQESKLIILASGGPQALVNIMRTYTYEKLLWTTSRVLKVLSVCSSNKPAIVEAGGMQALGLHLTDPSQRLVQNCLWTLRNLSDAATKQEGMEGLLGTLVQLLGSDDINVVTCAAGILSNLTCNNYKNKMMVCQVGGIEALVRTVLRAGDREDITEPAICALRHLTSRHQEAEMAQNAVRLHYGLPVVVKLLHPPSHWPLIKATVGLIRNLALCPANHAPLREQGAIPRLVQLLVRAHQDTQRRTSMGGTQQQFVEGVRMEEIVEGCTGALHILARDVHNRIVIRGLNTIPLFVQLLYSPIENIQRVAAGVLCELAQDKEAAEAIEAEGATAPLTELLHSRNEGVATYAAAVLFRMSEDKPQDYKKRLSVELTSSLFRTEPMAWNETADLGLDIGAQGEALGYRQDDPSYRSFHSGGYGQDALGMDPMMEHEMGGHHPGADYPVDGLPDLGHAQDLMDGLPPGDSNQLAWFDTDL chain 2: MKRRDKERQAKQLLIDPEDDVRDNILKYDEEGGGEEDQDYDLSQLQQPDTVEPDAIKPVGIRRLDERPIHAEPQYPVRSAAPHPGDIGDFINEGLKAADNDPTAPPYDSLLVFDYEGSGSTAGSLSSLNSSSSGGDQDYDYLNDWGPRFKKLADMYGGGDD
